The data set relates to Escherichia coli TOP10. Briefly: shrunken log2 fold change of peptide-encoding DNA abundance (4.5 h post-induction vs induction); higher = less antimicrobial activity (less host growth inhibition). As to conditions: time post-induction: 4.5 h; library: site-saturation at positions 5, 18, 19, 20.
Take RRIRVRPPRLPRPRPRPYSAPRP: the “shrunken log2 fold change” value was -0.805.
In the case of RRIRVRPPRLPRPRPRPFCDPRP, the “shrunken log2 fold change” value was -0.218.
Then RRIRMRPPRLPRPRPRPGVNPRP, with -0.0818; and RRIRDRPPRLPRPRPRPPFLPRP, with 0.0487; and RRIRNRPPRLPRPRPRPFNVPRP, with 0.109.
For RRIRHRPPRLPRPRPRPEVTPRP, the “shrunken log2 fold change” value was determined as 0.05.
Then RRIRERPPRLPRPRPRPGFYPRP, with 0.057.
Consider RRIRCRPPRLPRPRPRPWYHPRP, for which the “shrunken log2 fold change” value was -0.392.
For RRIRWRPPRLPRPRPRPHGVPRP, the “shrunken log2 fold change” value was found to be 0.0746.
The same measure for RRIRCRPPRLPRPRPRPYHFPRP: -1.01.
Regarding RRIRYRPPRLPRPRPRPGRTPRP, the “shrunken log2 fold change” value is -0.121.
For the sequence RRIRCRPPRLPRPRPRPIAEPRP, the “shrunken log2 fold change” value came to 0.247.
As to RRIRIRPPRLPRPRPRPQIRPRP, the “shrunken log2 fold change” value was -0.64.
Then RRIRNRPPRLPRPRPRPKDMPRP, with -0.0164; and RRIRTRPPRLPRPRPRPFKNPRP, with 0.0716; and RRIRTRPPRLPRPRPRPESMPRP, with 0.0954.
The same measure for RRIRSRPPRLPRPRPRPCNNPRP: -0.332; for RRIRKRPPRLPRPRPRPYRGPRP: -0.231.
Consider RRIRPRPPRLPRPRPRPAITPRP, for which the “shrunken log2 fold change” value is -0.361.
Then RRIRERPPRLPRPRPRPGRCPRP, with 0.0675.
As to RRIRFRPPRLPRPRPRPMIQPRP, the “shrunken log2 fold change” value is -0.0594.
RRIRPRPPRLPRPRPRPTVLPRP: the “shrunken log2 fold change” value is -0.225.
The same measure for RRIRDRPPRLPRPRPRPSSIPRP: 0.0533; for RRIRQRPPRLPRPRPRPSLQPRP: -0.154; for RRIRIRPPRLPRPRPRPSRNPRP: -0.124.
Turning to RRIRSRPPRLPRPRPRPKTGPRP, the “shrunken log2 fold change” value is -0.071.
With RRIRFRPPRLPRPRPRPKPVPRP, the “shrunken log2 fold change” value stood at 0.727.
Then RRIRSRPPRLPRPRPRPHTTPRP, with -0.0736; and RRIRTRPPRLPRPRPRPYQFPRP, with 0.0636.
For RRIRGRPPRLPRPRPRPYRHPRP, the “shrunken log2 fold change” value was found to be 0.161.
As to RRIRWRPPRLPRPRPRPICDPRP, the “shrunken log2 fold change” value stood at 0.0755.
RRIRNRPPRLPRPRPRPVFAPRP: the “shrunken log2 fold change” value was -0.0312.
The same measure for RRIRPRPPRLPRPRPRPILVPRP: -0.178; for RRIRGRPPRLPRPRPRPSFWPRP: 0.66.
With RRIRSRPPRLPRPRPRPWWSPRP, the “shrunken log2 fold change” value is -0.237.
Then RRIRYRPPRLPRPRPRPNLEPRP, with -0.113.
Consider RRIRSRPPRLPRPRPRPLMLPRP, for which the “shrunken log2 fold change” value was -0.581.
Then RRIRARPPRLPRPRPRPKYAPRP, with 0.354.
The same measure for RRIRWRPPRLPRPRPRPWGRPRP: 0.0619; for RRIRDRPPRLPRPRPRPCTLPRP: -0.302.
The same measure for RRIRHRPPRLPRPRPRPTEKPRP: 0.0288.
For the sequence RRIRARPPRLPRPRPRPCSPPRP, the “shrunken log2 fold change” value was -0.0746.
With RRIRQRPPRLPRPRPRPQTFPRP, the “shrunken log2 fold change” value amounted to 0.028.
Then RRIRARPPRLPRPRPRPQKCPRP, with 0.0806; and RRIRVRPPRLPRPRPRPKCDPRP, with 0.0741.
The same measure for RRIRWRPPRLPRPRPRPLRIPRP: 0.148.
Then RRIRVRPPRLPRPRPRPKAAPRP, with 0.1; and RRIRQRPPRLPRPRPRPHRPPRP, with 0.0757.
Turning to RRIRLRPPRLPRPRPRPRYLPRP, the “shrunken log2 fold change” value is -0.0102.
Then RRIRFRPPRLPRPRPRPDAPPRP, with 0.421.
The same measure for RRIRQRPPRLPRPRPRPFMEPRP: 0.212; for RRIRPRPPRLPRPRPRPKNQPRP: -0.108; for RRIRKRPPRLPRPRPRPMGQPRP: 0.0265.
Turning to RRIRGRPPRLPRPRPRPREEPRP, the “shrunken log2 fold change” value turned out to be 1.57.
The same measure for RRIRTRPPRLPRPRPRPNETPRP: 0.0139; for RRIRPRPPRLPRPRPRPCVIPRP: -0.222; for RRIRSRPPRLPRPRPRPVWIPRP: 0.0104.
For the sequence RRIRRRPPRLPRPRPRPRFDPRP, the “shrunken log2 fold change” value is 0.121.
As to RRIRRRPPRLPRPRPRPVLLPRP, the “shrunken log2 fold change” value amounted to 0.103.
For RRIRGRPPRLPRPRPRPVRDPRP, the “shrunken log2 fold change” value is 0.401.
Regarding RRIRTRPPRLPRPRPRPLMEPRP, the “shrunken log2 fold change” value was 0.0859.
The same measure for RRIRIRPPRLPRPRPRPSCQPRP: -0.0446; for RRIRTRPPRLPRPRPRPGHGPRP: 0.138.
Regarding RRIRVRPPRLPRPRPRPSPLPRP, the “shrunken log2 fold change” value is -0.0757.
Regarding RRIRRRPPRLPRPRPRPFRNPRP, the “shrunken log2 fold change” value was -0.0392.
The same measure for RRIRPRPPRLPRPRPRPWCRPRP: 0.0933.
Regarding RRIRDRPPRLPRPRPRPELQPRP, the “shrunken log2 fold change” value came out at 0.072.
For RRIRRRPPRLPRPRPRPLNQPRP, the “shrunken log2 fold change” value was 0.0755.
For the sequence RRIRFRPPRLPRPRPRPDKQPRP, the “shrunken log2 fold change” value is -0.0106.
Then RRIRERPPRLPRPRPRPTETPRP, with -0.00327.
For RRIRLRPPRLPRPRPRPDHCPRP, the “shrunken log2 fold change” value was -0.0562.
For RRIRGRPPRLPRPRPRPTVWPRP, the “shrunken log2 fold change” value came to 1.32.
In the case of RRIRKRPPRLPRPRPRPFCPPRP, the “shrunken log2 fold change” value is 0.0562.
Then RRIRARPPRLPRPRPRPDHCPRP, with 0.063; and RRIRVRPPRLPRPRPRPPFFPRP, with 0.193.
Then RRIRYRPPRLPRPRPRPVFQPRP, with -0.503; and RRIRLRPPRLPRPRPRPVHFPRP, with -0.272.
Take RRIRFRPPRLPRPRPRPSSQPRP: the “shrunken log2 fold change” value was -0.458.
On to RRIRPRPPRLPRPRPRPGNCPRP, for which the “shrunken log2 fold change” value was -0.0898.
With RRIRTRPPRLPRPRPRPLQEPRP, the “shrunken log2 fold change” value is 0.0814.
In the case of RRIRRRPPRLPRPRPRPHKLPRP, the “shrunken log2 fold change” value amounted to 0.022.
In the case of RRIRLRPPRLPRPRPRPASSPRP, the “shrunken log2 fold change” value was -0.0827.
Turning to RRIRERPPRLPRPRPRPWMYPRP, the “shrunken log2 fold change” value was -0.508.
With RRIRCRPPRLPRPRPRPIIHPRP, the “shrunken log2 fold change” value was -0.799.
The same measure for RRIRARPPRLPRPRPRPHWQPRP: 0.124; for RRIRTRPPRLPRPRPRPMSLPRP: -0.147.
Consider RRIRWRPPRLPRPRPRPRVFPRP, for which the “shrunken log2 fold change” value was determined as 0.186.
The same measure for RRIRVRPPRLPRPRPRPRSDPRP: -0.258; for RRIRNRPPRLPRPRPRPFPIPRP: -0.132.
The same measure for RRIRKRPPRLPRPRPRPNKIPRP: 0.0339; for RRIRPRPPRLPRPRPRPLLAPRP: 1.42.
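Further: peptides expressed intracellularly from a pBAD plasmid library in pooled LB shake-flask culture, induced with 0.3% L-arabinose, DNA abundance read by NGS, three biological replicates, DESeq2 with apeglm shrinkage.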
